In US20040109887A1:

Legend:
[1] = target: cleavage-defective YU2 gp160?CT glycoprotein (HIV-1 isolate YU2; bovine rhodopsin) (UniProt P35961); assay: FACS on PLs, with against without sCD4 preincubation (without = 100%)
[2] = target: Cleavage-competent YU2 gp160?CT glycoprotein (HIV-1 isolate YU2; bovine rhodopsin) (UniProt P35961); assay: FACS on 293T cells, with against without sCD4 preincubation (without = 100%)
[3] = target: cleavage-defective YU2 gp160?CT glycoprotein (HIV-1 isolate YU2; bovine rhodopsin) (UniProt P35961); assay: FACS titration on gp160?CT PLs / 293T cells, half-maximal binding
[4] = target: HXBc2 gp160?CT glycoprotein (HIV-1 isolate HXBc2; bovine rhodopsin) (UniProt P04578); assay: FACS titration, anti-human IgG PE
[5] = target: cleavage-defective YU2 gp160?CT glycoprotein (HIV-1 isolate YU2; bovine rhodopsin) (UniProt P35961); assay: FACS titration; saturation not reached with C11

17b antibody
% increase of 17b binding after preincubation with sCD4 [1]: 46% | % increase of 17b binding after preincubation with sCD4 [2]: 63%

IgG1b12 antibody
EC50 [3]: 6 nM

2F5 antibody
fold higher affinity on PLs with a reconstituted membrane than on beads without a membrane [4]: 10 fold

C11 antibody
fold lower affinity than IgG1b12 [5]: > 10 fold
